Laboratory results published in patent US12060424 (AMUNIX PHARMACEUTICALS, dated 2024).
Blank lines part the entries; values can stand above or below the binder they belong to.

Assays:
[1] = target: T1, human EpCAM expressed on cells (CHO cells stably transfected with human EpCAM); EpCAM-positive human tumor … (human, UniProt P16422 24-314); experiment: competition flow cytometry on hEp-CHO 4-12B cells
T1 construct: whole, on cells; also called EpCAM-CHO; hEp-CHO 4-12B
T1 sequence (looked up): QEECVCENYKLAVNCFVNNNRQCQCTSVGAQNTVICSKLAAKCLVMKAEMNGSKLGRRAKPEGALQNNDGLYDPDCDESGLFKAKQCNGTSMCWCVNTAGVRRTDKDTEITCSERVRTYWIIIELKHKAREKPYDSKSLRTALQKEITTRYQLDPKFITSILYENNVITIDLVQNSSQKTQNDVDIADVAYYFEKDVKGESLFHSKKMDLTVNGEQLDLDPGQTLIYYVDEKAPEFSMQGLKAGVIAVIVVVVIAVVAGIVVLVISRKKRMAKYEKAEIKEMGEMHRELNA

[2] = target: T2, human CD3 on cells (CD3+ Jurkat cells; purified human CD3 positive T cells) (human, UniProt P07766 23-207); experiment: competition flow cytometry on Jurkat cells
T2 construct: whole, on cells; CD3 is a multi-subunit complex
T2 sequence (P07766 23-207): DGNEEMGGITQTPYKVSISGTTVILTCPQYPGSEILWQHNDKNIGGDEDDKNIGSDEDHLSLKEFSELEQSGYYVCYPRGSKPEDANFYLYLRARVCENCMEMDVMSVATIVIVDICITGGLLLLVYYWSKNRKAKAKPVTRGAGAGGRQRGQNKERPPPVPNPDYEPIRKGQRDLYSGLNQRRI

fold weaker binding affinity than cleaved AC1968 [1]: ~100 fold
B1: AC1952 anti-human EpCAM×anti-human CD3 ProTIA with two XTEN, RSR-2295, uncleaved (bispecific antibody)
chain: SPAGSPTSTEEGTSESATPESGPGTSTEPSEGSAPGTSESATPESGPGSEPATSGSETPGTSESATPESGPGSEPATSGSETPGTSESATPESGPGTSTEPSEGSAPGSPAGSPTSTEEGTSESATPESGPGSEPATSGSETPGTSESATPESGPGSPAGSPTSTEEGSPAGSPTSTEEGTSTEPSEGSAPGTSESATPESGPGTSESATPESGPGTSESATPESGPGSEPATSGSETPGSEPATSGSETPGSPAGSPTSTEEGTSTEPSEGSAPGTSTEPSEGSAPGGSAPEAGRSANHTPAGLTGPATSGSETPGTDIQMTQSPSSLSASVGDRVTITCRSTKSLLHSNGITYLYWYQQKPGKAPKLLIYQMSNLASGVPSRFSSSGSGTDFTLTISSLQPEDFATYYCAQNLEIPRTFGQGTKVEIKGATPPETGAETESPGETTGGSAESEPPGEGQVQLVQSGPGLVQPGGSVRISCAASGYTFTNYGMNWVKQAPGKGLEWMGWINTYTGESTYADSFKGRFTFSLDTSASAAYLQINSLRAEDTAVYYCARFAIKGDYWGQGTLLTVSSGGGGSELVVTQEPSLTVSPGGTVTLTCRSSTGAVTTSNYANWVQQKPGQAPRGLIGGTNKRAPGTPARFSGSLLGGKAALTLSGVQPEDEAEYYCALWYSNLWVFGGGTKLTVLGATPPETGAETESPGETTGGSAESEPPGEGEVQLLESGGGLVQPGGSLKLSCAASGFTFNTYAMNWVRQAPGKGLEWVARIRSKYNNYATYYADSVKDRFTISRDDSKNTAYLQMNNLKTEDTAVYYCVRHGNFGNSYVSWFAYWGQGTLVTVSSGTAEAASASGEAGRSANHTPAGLTGPPGSPAGSPTSTEEGTSESATPESGPGTSTEPSEGSAPGSPAGSPTSTEEGTSTEPSEGSAPGTSTEPSEGSAPGTSESATPESGPGSEPATSGSETPGSEPATSGSETPGSPAGSPTSTEEGTSESATPESGPGTSTEPSEGSAPGTSTEPSEGSAPGSPAGSPTSTEEGTSTEPSEGSAPGTSTEPSEGSAPGTSESATPESGPGTSTEPSEGSAPGTSESATPESGPGSEPATSGSETPGTSTEPSEGSAPGTSTEPSEGSAPGTSESATPESGPGTSESATPESGPGSPAGSPTSTEEGTSESATPESGPGSEPATSGSETPGTSESATPESGPGTSTEPSEGSAPGTSTEPSEGSAPGTSTEPSEGSAPGTSTEPSEGSAPGTSTEPSEGSAPGTSTEPSEGSAPGSPAGSPTSTEEGTSTEPSEGSAPGTSESATPESGPGSEPATSGSETPGTSESATPESGPGSEPATSGSETPGTSESATPESGPGTSTEPSEGSAPGTSESATPESGPGSPAGSPTSTEEGSPAGSPTSTEEGSPAGSPTSTEEGTSESATPESGPGTSTEPSEGSAPGTSESATPESGPGSEPATSGSETPGTSESATPESGPGSEPATSGSETPGTSESATPESGPGTSTEPSEGSAPGSPAGSPTSTEEGTSESATPESGPGSEPATSGSETPGTSESATPESGPGSPAGSPTSTEEGSPAGSPTSTEEGTSTEPSEGSAPGTSESATPESGPGTSESATPESGPGTSESATPESGPGSEPATSGSETPGSEPATSGSETPGSPAGSPTSTEEGTSTEPSEGSAPGTSTEPSEGSAPGSEPATSGSETPGTSESATPESGPGTSTEPSEGSAPGHHHHHH
notes: XTEN-RSR2295-anti-EpCAM scFv-anti-CD3 (hCD3.9) scFv-RSR2295-XTEN-His6

fold weaker binding affinity than cleaved AC1695 [2]: ~30 fold | fold weaker binding affinity than cleaved AC1695 [1]: ~100 fold
B2: AC1886 anti-EpCAM×anti-CD3 ProTIA with two XTEN (XTEN292-RSR3058-anti-EpCAM-anti-CD3 tandem scFv-RSR3058-XTEN_867-6xHIS) (bispecific antibody)
chain: SPAGSPTSTEEGTSESATPESGPGTSTEPSEGSAPGTSESATPESGPGSEPATSGSETPGTSESATPESGPGSEPATSGSETPGTSESATPESGPGTSTEPSEGSAPGSPAGSPTSTEEGTSESATPESGPGSEPATSGSETPGTSESATPESGPGSPAGSPTSTEEGSPAGSPTSTEEGTSTEPSEGSAPGTSESATPESGPGTSESATPESGPGTSESATPESGPGSEPATSGSETPGSEPATSGSETPGSPAGSPTSTEEGTSTEPSEGSAPGTSTEPSEGSAPGGSAPTTGEAGEAAGATSAGATGPATSGSETPGTDIQMTQSPSSLSASVGDRVTITCRSTKSLLHSNGITYLYWYQQKPGKAPKLLIYQMSNLASGVPSRFSSSGSGTDFTLTISSLQPEDFATYYCAQNLEIPRTFGQGTKVEIKGATPPETGAETESPGETTGGSAESEPPGEGQVQLVQSGPGLVQPGGSVRISCAASGYTFTNYGMNWVKQAPGKGLEWMGWINTYTGESTYADSFKGRFTFSLDTSASAAYLQINSLRAEDTAVYYCARFAIKGDYWGQGTLLTVSSGGGGSDIQMTQSPSSLSASVGDRVTITCRASQDIRNYLNWYQQKPGKAPKLLIYYTSRLESGVPSRFSGSGSGTDYTLTISSLQPEDFATYYCQQGNTLPWTFGQGTKVEIKGATPPETGAETESPGETTGGSAESEPPGEGEVQLVESGGGLVQPGGSLRLSCAASGYSFTGYTMNWVRQAPGKGLEWVALINPYKGVSTYNQKFKDRFTISVDKSKNTAYLQMNSLRAEDTAVYYCARSGYYGDSDWYFDVWGQGTLVTVSSGTAEAASASGTTGEAGEAAGATSAGATGPSPGSPAGSPTSTEEGTSESATPESGPGTSTEPSEGSAPGSPAGSPTSTEEGTSTEPSEGSAPGTSTEPSEGSAPGTSESATPESGPGSEPATSGSETPGSEPATSGSETPGSPAGSPTSTEEGTSESATPESGPGTSTEPSEGSAPGTSTEPSEGSAPGSPAGSPTSTEEGTSTEPSEGSAPGTSTEPSEGSAPGTSESATPESGPGTSTEPSEGSAPGTSESATPESGPGSEPATSGSETPGTSTEPSEGSAPGTSTEPSEGSAPGTSESATPESGPGTSESATPESGPGSPAGSPTSTEEGTSESATPESGPGSEPATSGSETPGTSESATPESGPGTSTEPSEGSAPGTSTEPSEGSAPGTSTEPSEGSAPGTSTEPSEGSAPGTSTEPSEGSAPGTSTEPSEGSAPGSPAGSPTSTEEGTSTEPSEGSAPGTSESATPESGPGSEPATSGSETPGTSESATPESGPGSEPATSGSETPGTSESATPESGPGTSTEPSEGSAPGTSESATPESGPGSPAGSPTSTEEGSPAGSPTSTEEGSPAGSPTSTEEGTSESATPESGPGTSTEPSEGSAPGTSESATPESGPGSEPATSGSETPGTSESATPESGPGSEPATSGSETPGTSESATPESGPGTSTEPSEGSAPGSPAGSPTSTEEGTSESATPESGPGSEPATSGSETPGTSESATPESGPGSPAGSPTSTEEGSPAGSPTSTEEGTSTEPSEGSAPGTSESATPESGPGTSESATPESGPGTSESATPESGPGSEPATSGSETPGSEPATSGSETPGSPAGSPTSTEEGTSTEPSEGSAPGTSTEPSEGSAPGSEPATSGSETPGTSESATPESGPGTSTEPSEGSAPGHHHHHH
notes: Uncleavable release segments RSR-3058; anti-EpCAM 4D5MOCB; hCD3.3
